B1: Protein PTHB1 (Homo sapiens), Q3SYG4 (parent)
chain: MSLFKARDWWSTILGDKEEFDQGCLCLANVDNSGNGQDKIIVGSFMGYLRIFSPHPAKTGDGAQAEDLLLEVDLRDPVLQVEVGKFVSGTEMLHLAVLHSRKLCVYSVSGTLGNVEHGNQCQMKLMYEHNLQRTACNMTYGSFGGVKGRDLICIQSMDGMLMVFEQESYAFGRFLPGFLLPGPLAYSSRTDSFLTVSSCQQVESYKYQVLAFATDADKRQETEQQKLGSGKRLVVDWTLNIGEQALDICIVSFNQSASSVFVLGERNFFCLKDNGQIRFMKKLDWSPSCFLPYCSVSEGTINTLIGNHNNMLHIYQDVTLKWATQLPHIPVAVRVGCLHDLKGVIVTLSDDGHLQCSYLGTDPSLFQAPNVQSRELNYDELDVEMKELQKIIKDVNKSQGVWPMTEREDDLNVSVVVSPNFDSVSQATDVEVGTDLVPSVTVKVTLQNRVILQKAKLSVYVQPPLELTCDQFTFEFMTPDLTRTVSFSVYLKRSYTPSELEGNAVVSYSRPTDRNPDGIPRVIQCKFRLPLKLICLPGQPSKTASHKITIDTNKSPVSLLSLFPGFASQSDDDQVNVMGFHFLGGARITVLASKTSQRYRIQSEQFEDLWLITNELILRLQEYFEKQGVKDFACSFSGSIPLQEYFELIDHHFELRINGEKLEELLSERAVQFRAIQRRLLARFKDKTPAPLQHLDTLLDGTYKQVIALADAVEENQGNLFQSFTRLKSATHLVILLIALWQKLSADQVAILEAAFLPLQEDTQELGWEETVDAAISHLLKTCLSKSSKEQALNLNSQLNIPKDTSQLKKHITLLCDRLSKGGRLCLSTDAAAPQTMVMPGGCTTIPESDLEERSVEQDSTELFTNHRHLTAETPRPEVSPLQGVSE
partner: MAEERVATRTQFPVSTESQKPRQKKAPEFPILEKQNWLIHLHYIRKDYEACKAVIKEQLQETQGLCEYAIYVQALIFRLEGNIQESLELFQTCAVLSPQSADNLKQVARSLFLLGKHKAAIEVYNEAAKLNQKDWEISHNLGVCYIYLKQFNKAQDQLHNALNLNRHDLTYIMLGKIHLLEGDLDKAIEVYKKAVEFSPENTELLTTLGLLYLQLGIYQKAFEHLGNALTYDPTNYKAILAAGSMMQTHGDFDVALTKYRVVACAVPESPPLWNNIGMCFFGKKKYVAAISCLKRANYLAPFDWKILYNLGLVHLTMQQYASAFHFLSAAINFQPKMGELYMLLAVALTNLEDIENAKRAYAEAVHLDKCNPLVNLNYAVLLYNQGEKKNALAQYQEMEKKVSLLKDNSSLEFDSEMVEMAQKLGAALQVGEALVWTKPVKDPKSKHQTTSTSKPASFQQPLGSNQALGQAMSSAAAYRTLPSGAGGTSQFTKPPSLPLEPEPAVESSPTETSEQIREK

Variants of: B1
Conditions: with bbs4_human BBS4, Q96RK4

Row | Variant | effect of a mutation on the interaction
1 | I612A | with no effect
2 | I612K | with no effect
3 | I612E | with no effect
4 | D608K | with no effect
5 | D608E | with no effect
6 | D608A | with no effect
7 | F606A | with no effect
8 | F606K | with no effect
9 | F606E | with no effect
10 | E625K | with no effect
11 | E625A | with no effect
12 | K626A | with no effect
13 | K626E | with no effect
14 | T595E | with no effect
15 | T595K | with no effect
16 | T595A | with no effect
17 | I601A | with no effect
18 | I601K | with no effect
19 | I601E | with no effect
20 | L609A | with no effect
21 | L609K | with no effect
22 | L609E | with no effect

Row | Variant | effect of a mutation on the interaction
23 | Q602K | with no effect
24 | Q602E | with no effect
25 | Q602A | with no effect
26 | Y599K | with no effect
27 | Y599E | with no effect
28 | Y599A | with no effect
29 | T613I | disrupting interaction strength
30 | T613E | with no effect
31 | T613K | with no effect
32 | T613A | with no effect
33 | Q605E | with no effect
34 | Q605A | with no effect
35 | Q605K | with no effect
36 | S603K | with no effect
37 | S603A | with no effect
38 | S603E | with no effect
39 | S603N | disrupting interaction strength
40 | Q627E | with no effect
41 | Q627A | with no effect
42 | Q627K | with no effect
43 | E604K | with no effect
44 | E604A | with no effect

Row | Variant | effect of a mutation on the interaction
45 | Q597K | with no effect
46 | Q597E | with no effect
47 | Q597R | disrupting interaction strength
48 | Q597A | with no effect
49 | R619K | with no effect
50 | R619E | with no effect
51 | R619A | with no effect
52 | S596K | with no effect
53 | S596E | with no effect
54 | S596A | with no effect
55 | Q621E | with no effect
56 | Q621A | with no effect
57 | Q621K | with no effect
58 | L611F | disrupting interaction strength
59 | L611K | with no effect
60 | L611C | disrupting interaction strength
61 | L611E | with no effect
62 | L611A | with no effect
63 | I617T | disrupting interaction strength
64 | I617K | with no effect
65 | I617E | with no effect
66 | I617A | with no effect

Row | Variant | effect of a mutation on the interaction
67 | L618A | with no effect
68 | L618K | with no effect
69 | L618E | with no effect
70 | W610A | with no effect
71 | W610K | with no effect
72 | W610E | with no effect
73 | R600A | with no effect
74 | R600E | with no effect
75 | R600K | with no effect
76 | R600G | disrupting interaction strength
77 | F624A | with no effect
78 | F624E | with no effect
79 | F624K | with no effect
80 | N614E | with no effect
81 | N614A | with no effect
82 | N614K | with no effect
83 | Y623A | with no effect
84 | Y623E | with no effect
85 | Y623K | with no effect
86 | L616E | with no effect
87 | L616A | with no effect
88 | L616K | with no effect

Row | Variant | effect of a mutation on the interaction
89 | L616P | disrupting interaction strength
90 | L620P | disrupting interaction strength
91 | L620K | with no effect
92 | L620E | with no effect
93 | L620A | with no effect
94 | V629A | with no effect
95 | E622A | with no effect
96 | E622K | with no effect
97 | G628E | with no effect
98 | G628K | with no effect
99 | G628A | with no effect
100 | E615A | with no effect
101 | E615K | with no effect
102 | R598A | with no effect
103 | R598K | with no effect
104 | R598E | with no effect
105 | E607A | with no effect
106 | E607K | with no effect
107 | S593K | with no effect
108 | K594E | with no effect
109 | K594A | with no effect

Second part, the variant after the results:

Row | effect of a mutation on the interaction | Variant
110 | with no effect | C634E
111 | with no effect | C634K
112 | with no effect | C634A
113 | with no effect | S635K
114 | with no effect | S635E
115 | with no effect | S635A
116 | with no effect | S637A
117 | with no effect | S637K
118 | with no effect | S637E
119 | with no effect | P641K
120 | with no effect | P641E
121 | with no effect | P641A
122 | with no effect | Q643A
123 | with no effect | Q643K
124 | with no effect | Q643E
125 | with no effect | E647A
126 | disrupting interaction strength | E647K
127 | disrupting interaction strength | E647G
128 | with no effect | F632A
129 | with no effect | F632E
130 | with no effect | F632K
131 | with no effect | H651K
132 | with no effect | H651E
133 | with no effect | H651A
134 | with no effect | D650E

Row | effect of a mutation on the interaction | Variant
135 | with no effect | D650A
136 | with no effect | D650K
137 | with no effect | F636A
138 | with no effect | F636K
139 | with no effect | F636E
140 | with no effect | G638K
141 | with no effect | G638E
142 | with no effect | G638A
143 | with no effect | F646K
144 | with no effect | F646A
145 | with no effect | F646E
146 | disrupting interaction strength | E654A
147 | with no effect | L648E
148 | with no effect | L648A
149 | with no effect | L648K
150 | with no effect | K630E
151 | with no effect | K630A
152 | with no effect | Y645A
153 | with no effect | Y645E
154 | with no effect | Y645K
155 | with no effect | F653K
156 | with no effect | F653A
157 | with no effect | F653E
158 | with no effect | L642A
159 | with no effect | L642E

Row | effect of a mutation on the interaction | Variant
160 | with no effect | L642K
161 | with no effect | A633K
162 | with no effect | A633E
163 | with no effect | E644A
164 | with no effect | E644K
165 | with no effect | S639K
166 | with no effect | S639E
167 | with no effect | S639A
168 | with no effect | V629K
169 | disrupting interaction strength | V629I
170 | with no effect | V629E
171 | with no effect | I640E
172 | with no effect | I640K
173 | with no effect | I640A
174 | with no effect | H652K
175 | with no effect | H652E
176 | with no effect | H652A
177 | with no effect | I649E
178 | with no effect | I649A
179 | with no effect | I649K
180 | with no effect | D631E
181 | with no effect | D631K
182 | with no effect | D631A

— IntAct's records for PubMed 29039417
